# Columns and labels:
# HLA-B*15:01 [1] = assay: IEDB peptide-MHC binding, purified MHC/competitive/fluorescence; ≥ and ≤ were set here for values at or beyond the usual limits of such assays; details: source organism: Zaire ebolavirus
# HLA-A*02:01 [2] = assay: as above; details: source organism: Zaire ebolavirus
# HLA-A*03:01 [3] = assay: as above
# HLA-A*11:01 [4] = assay: as above
# HLA-B*07:02 [5] = assay: IEDB peptide-MHC binding, purified MHC/competitive/fluorescence; filed as Kd, often an IC50 or EC50 that approximates it; ≥ and ≤ were set here for values at or beyond the usual limits of such assays
# HLA-A*31:01 = assay: IEDB peptide-MHC binding, purified MHC/direct/fluorescence; filed as Kd, often an IC50 or EC50 that approximates it; ≥ and ≤ were set here for values at or beyond the usual limits of such assays
# HLA-A*26:01 = assay: as above
# HLA-B*27:05 = assay: as above
# HLA-A*69:01 = assay: as above
# HLA-B*07:02 [6] = assay: as above
# HLA-A*24:02 [7] = assay: as above
# HLA-B*08:01 [8] = assay: as above
# HLA-B*58:01 = assay: as above
# HLA-A*24:03 = assay: as above; details: source organism: Influenza A virus (A/swine/Hong Kong/5190/99(H3N2))
# HLA-B*40:01 = assay: as above
# HLA-A*01:01 = assay: as above
# HLA-A*02:01 [9] = assay: as above
# HLA-A*03:01 [10] = assay: as above
# HLA-B*44:02 = assay: as above
# HLA-A*11:01 [11] = assay: as above
# HLA-B*15:01 [12] = assay: as above; details: source organism: Influenza A virus (A/Puerto Rico/8/34/Mount Sinai(H1N1))
# HLA-B*46:01 = assay: as above
# HLA-B*07:02 [13] = assay: IEDB peptide-MHC binding, purified MHC/competitive/fluorescence; ≥ and ≤ were set here for values at or beyond the usual limits of such assays; details: source organism: Zaire ebolavirus
# HLA-B*08:01 [14] = assay: as above; details: source organism: Zaire ebolavirus
# HLA-B*15:01 [15] = assay: IEDB peptide-MHC binding, purified MHC/competitive/fluorescence; filed as Kd, often an IC50 or EC50 that approximates it; ≥ and ≤ were set here for values at or beyond the usual limits of such assays; details: source organism: Encephalitozoon cuniculi GB-M1
# HLA-B*51:01 = assay: as above; details: source organism: Encephalitozoon cuniculi GB-M1
# HLA-B*35:01 = assay: as above; details: source organism: Encephalitozoon cuniculi GB-M1
# HLA-A*24:02 [16] = assay: IEDB peptide-MHC binding, purified MHC/competitive/fluorescence; ≥ and ≤ were set here for values at or beyond the usual limits of such assays; details: source organism: Zaire ebolavirus
# [17] = source organism: Zaire ebolavirus
# [18] = source organism: Influenza A virus (A/swine/Hong Kong/5190/99(H3N2))
# [19] = source organism: Influenza A virus (A/SW/KS/13481-T/00(H1N2))
# [20] = source organism: Sudan ebolavirus
# [21] = source organism: Influenza A virus (A/Hong Kong/507/97(H5N1))
sequence,measurement,setting,value
AITAASLPK,IC50,HLA-B*15:01 [1],≥ 183 µM
same,IC50,HLA-A*02:01 [2],≥ 281 µM
same,IC50,HLA-A*03:01 [3]; [17],6.97 µM
same,IC50,HLA-A*11:01 [4]; [17],0.368 µM
APGWLIWTY,Kd,HLA-B*07:02 [5]; source organism: human gammaherpesvirus 4,≥ 20 µM
GYMFESKSM,Kd,HLA-A*31:01; [18],≥ 20 µM
same,Kd,HLA-A*26:01; source organism: Influenza A virus(A/swine/Henan/5/2004(H9N2)),≥ 20 µM
same,Kd,HLA-B*27:05; [18],≥ 20 µM
same,Kd,HLA-A*69:01; [18],≥ 20 µM
same,Kd,HLA-B*07:02 [6]; [18],≥ 20 µM
same,Kd,HLA-A*24:02 [7]; [18],≥ 20 µM
same,Kd,HLA-B*08:01 [8]; [18],≥ 20 µM
same,Kd,HLA-B*58:01; [18],≥ 20 µM
same,Kd,HLA-A*24:03,0.0677 µM
same,Kd,HLA-B*40:01; [18],≥ 20 µM
same,Kd,HLA-A*01:01; [18],≥ 20 µM
same,Kd,HLA-A*02:01 [9]; [18],≥ 20 µM
same,Kd,HLA-A*03:01 [10]; [18],≥ 20 µM
same,Kd,HLA-B*44:02; [18],≥ 20 µM
same,Kd,HLA-A*11:01 [11]; [18],≥ 20 µM
HEKGINPNY,Kd,HLA-A*31:01; [19],≥ 20 µM
same,Kd,HLA-A*26:01; [19],≥ 20 µM
same,Kd,HLA-B*27:05; [19],≥ 20 µM
same,Kd,HLA-B*15:01 [12],0.541 µM
same,Kd,HLA-A*69:01; [19],≥ 20 µM
same,Kd,HLA-B*07:02 [6]; [19],≥ 20 µM
same,Kd,HLA-A*24:02 [7]; [19],≥ 20 µM
same,Kd,HLA-B*08:01 [8]; [19],≥ 20 µM
same,Kd,HLA-B*58:01; [19],≥ 20 µM
same,Kd,HLA-B*40:01; [19],≥ 20 µM
same,Kd,HLA-A*01:01; [19],≥ 20 µM
same,Kd,HLA-A*02:01 [9]; [19],≥ 20 µM
same,Kd,HLA-A*03:01 [10]; [19],≥ 20 µM
same,Kd,HLA-A*11:01 [11]; [19],≥ 20 µM
same,Kd,HLA-B*46:01; [19],≥ 20 µM
HLASTDQLK,IC50,HLA-A*03:01 [3]; [20],27.1 µM
same,IC50,HLA-A*11:01 [4]; [20],13.8 µM
ILFQRTFSI,IC50,HLA-B*15:01 [1],≥ 375 µM
same,IC50,HLA-B*07:02 [13],≥ 72.2 µM
same,IC50,HLA-B*08:01 [14],1.26 µM
same,IC50,HLA-A*02:01 [2],0.309 µM
same,IC50,HLA-A*03:01 [3]; [17],2.46 µM
same,IC50,HLA-A*11:01 [4]; [17],42.8 µM
ILRQNMIAL,Kd,HLA-B*15:01 [15],0.188 µM
same,Kd,HLA-B*07:02 [5]; source organism: Encephalitozoon cuniculi GB-M1,0.201 µM
same,Kd,HLA-B*51:01,≥ 20 µM
same,Kd,HLA-B*35:01,3.18 µM
IMPRDSWLI,Kd,HLA-A*24:02 [7]; source organism: Mycobacterium tuberculosis str. Haarlem,≤ 0.001 µM
KSCLPACVY,Kd,HLA-A*31:01; [21],≥ 20 µM
same,Kd,HLA-A*26:01; source organism: Influenza A virus(A/swine/Henan/8/2004(H9N2)),≥ 20 µM
same,Kd,HLA-B*27:05; [21],≥ 20 µM
same,Kd,HLA-B*15:01 [12],0.482 µM
same,Kd,HLA-A*69:01; [21],≥ 20 µM
same,Kd,HLA-B*07:02 [6]; [21],≥ 20 µM
same,Kd,HLA-A*24:02 [7]; [21],≥ 20 µM
same,Kd,HLA-B*08:01 [8]; [21],≥ 20 µM
same,Kd,HLA-B*58:01; [21],0.211 µM
same,Kd,HLA-B*40:01; [21],≥ 20 µM
same,Kd,HLA-A*01:01; [21],≥ 20 µM
same,Kd,HLA-A*02:01 [9]; [21],≥ 20 µM
same,Kd,HLA-A*03:01 [10]; [21],≥ 20 µM
same,Kd,HLA-B*44:02; [21],≥ 20 µM
same,Kd,HLA-B*46:01; [21],≥ 20 µM
KYLEGHGFR,IC50,HLA-A*24:02 [16],7.69 µM
same,IC50,HLA-A*03:01 [3]; [17],≥ 195 µM
